These results are taken from patent US20020150993A1 (Genentech, published 2002).

Sequences and labels used below:
B1: full-length DNA19355 polypeptide on cells (ligand)
chain: MCLSHLENMPLSHSRTQGAQRSSWKLWLFCSIVMLLFLCSFSWLIFIFLQLETAKEPCMAKFGPLPSKWQMASSEPPCVNKVSDWKLEILQNGLYLIYGQVAPNANYNDVAPFEVRLYKNKDMIQTLTNKSKIQNVGGTYELHVGDTIDLIFNSEHQVLKNNTYWGIILLANPQFIS
notes: also called DNA19355 ligand; polypeptide encoded by DNA19355-1150
B4: CD95 immunoadhesin (Fc fusion, UniProt P25445 26-173, looked up)
chain: QVTDINSKGLELRKTVTTVETQNLEGLHHDGQFCHKPCPPGERKARDCTVNGDEPDCVPCQEGKEYTDKAHFSSKCRRCRLCDEGHGLEVEINCTRTQNTKCRCKPNFFCNSTVCEHCDPCTKCEHGIIKECTLTSNTKCKEEGSRSN
notes: extracellular domain; also called Fas-IgG; CD95-IgG; not shown: hinge and Fc portion of human IgG, as described in Ashkenazi et al. 1991

Test [1] has as its target T1, TNFR1 immunoadhesin (human, UniProt P19438 30-211, limits assumed).
T1 construct: extracellular domain; also called TNFR1-IgG; not shown: hinge and Fc portion of human IgG, as described in Ashkenazi et al. 1991
T1 sequence (looked up): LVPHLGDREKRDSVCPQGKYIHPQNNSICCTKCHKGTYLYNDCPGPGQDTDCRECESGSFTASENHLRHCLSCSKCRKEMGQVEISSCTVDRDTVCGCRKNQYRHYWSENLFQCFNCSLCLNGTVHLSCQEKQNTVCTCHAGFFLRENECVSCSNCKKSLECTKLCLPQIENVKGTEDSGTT
In words: FACS on HUVEC (endogenous DNA19355 transcripts). How it is done: (§1) The DNA19355 polypeptide was identified in a human umbilical vein endothelial cell (HUVEC) library, and the DNA19355 polypeptide transcripts are readily detectable in HUVEC by RT-PCR (data not shown). […] HUVEC were purchased from Cell Systems (Kirkland, Wash.) and grown in a 50:50 mix of Ham's F12 and Low Glucose DMEM media containing […] fetal bovine serum, 2 mM L-glutamine, 10 mM Hepes, and 10 ng/ml basic FGF. Cells were FACS sorted with PBS, PRO364-IgG, TNFR1-IgG or Fas-IgG as a primary antibody and goat anti-human F(ab′)2 conjugated to phycoerythrin (CalTag, Burlingame, Calif.).

Test [2] concerns the target B1. In words: FACS on 293 cells transiently transfected with full-length DNA19355. As to the method:
In another assay, human 293 cells were transiently transfected with full-length DNA19355 and the ability of receptor immunoadhesin constructs for PRO364, TNFR1, HVEM, and DcR1 to t bind to those transfected cells was determined by FACS analysis. The 293 cells were maintained in high glucose DMEM media supplemented with 10% fetal bovine serum (FBS), 2 mM glutamine, 100 microgram/ml penicillin, and 100 microgram/ml streptomycin. The transfected cells (1×10⁵) were incubated for 60 minutes at 4° C. in 200 microliters 2% FBS/PBS with 1 microgram of the respective receptor or ligand immunoadhesin. The cells were then washed with 2% FBS/PBS, stained with R-phycoerythrin-conjugated goat anti-human antibody (Jackson Immunoresearch, West Grove, Pa.). Next, the cells were analyzed by FACS. To test the binding of the respective immunoadhesins to the transiently transfected cells, an expression vector (pRK5-CD4; Smith et al., Science, 328:1704-1707 (1987)) for CD4 was co-transfected with DNA19355 expression vector (see above). FITC-conjugated anti-CD4 (Pharmingen, San Diego, Calif.) was then used to identify and gate the transfected cell population in the FACS analysis.

The target of another test is T2, DR4 immunoadhesin (human, UniProt O00220 24-239, limits assumed).
T2 construct: extracellular domain; also called DR4-IgG; not shown: hinge and Fc portion of human IgG, as described in Ashkenazi et al. 1991
T2 sequence (looked up): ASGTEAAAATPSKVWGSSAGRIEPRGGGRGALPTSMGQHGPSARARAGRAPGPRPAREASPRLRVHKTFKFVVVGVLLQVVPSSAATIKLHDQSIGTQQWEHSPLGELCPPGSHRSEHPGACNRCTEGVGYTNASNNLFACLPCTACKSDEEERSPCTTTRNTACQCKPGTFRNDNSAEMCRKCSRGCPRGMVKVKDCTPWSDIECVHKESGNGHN
Kind of test: co-precipitation with protein A-sepharose, SDS-PAGE, autoradiography. How it is done: (§2) The soluble DNA19355 ECD molecule was then labeled with […], for testing its ability to interact with the PRO364 immunoadhesin. For comparison, immunoadhesin constructs were also made of the following TNF receptor family members: CD95, DR4, DR5, TNFR1, TNFR2, and Apo-3. CD95, DR4, DR5, TNFR1, TNFR2, and Apo-3 immunoadhesins were prepared by fusing each receptor's ECD to the hinge and Fc portion of human IgG, as described previously for TNFR1 [Ashkenazi et al., Proc. Natl. Acad. Sci., 88:10535-10539 (1991)]. The respective TNF receptor family members are described (and relevant references cited) in the Background of the Invention section.
(§3) For the co-precipitation assay, each immunoadhesin (5 microgram) was incubated with ¹²⁵I-labeled soluble DNA19355 polypeptide (1 microgram) for 1 hour at 24° C., followed by protein A-sepharose for 30 minutes on ice. The reaction mixtures were spun down and washed several times in PBS, boiled in SDS-PAGE buffer containing 20 mM dithiothreitol and then resolved by SDS-PAGE and autoradiography.

In another test the target is T3, DR5 immunoadhesin (human, UniProt O14763 56-210, limits assumed).
T3 construct: extracellular domain; also called DR5-IgG; Apo-2; not shown: hinge and Fc portion of human IgG, as described in Ashkenazi et al. 1991
The description is as above. How it is done:
as §2, §3

A further test addresses T4, TNFR2 immunoadhesin (human, UniProt P20333 23-257, limits assumed).
T4 construct: extracellular domain; also called TNFR2-IgG; not shown: hinge and Fc portion of human IgG, as described in Ashkenazi et al. 1991
T4 sequence (looked up): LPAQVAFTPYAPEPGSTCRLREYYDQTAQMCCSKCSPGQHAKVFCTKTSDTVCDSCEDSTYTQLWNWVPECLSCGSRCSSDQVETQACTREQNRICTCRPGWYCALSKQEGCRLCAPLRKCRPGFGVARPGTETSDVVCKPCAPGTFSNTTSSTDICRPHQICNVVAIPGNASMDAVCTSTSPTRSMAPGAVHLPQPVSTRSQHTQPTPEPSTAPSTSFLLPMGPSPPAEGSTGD
The description is as above. As to the method:
as §2, §3

The target of the test “CD95 immunoadhesin” is B4. Described as above. How it is done:
as §2, §3

Test [3] addresses T1, TNFR1 immunoadhesin. The test is described as above. As to the method:
as §2, §3

Another test deals with T5, Apo-3 immunoadhesin (human, UniProt Q93038 25-199).
T5 construct: extracellular domain; also called Apo-3-IgG; DR3; not shown: hinge and Fc portion of human IgG, as described in Ashkenazi et al. 1991
T5 sequence (looked up): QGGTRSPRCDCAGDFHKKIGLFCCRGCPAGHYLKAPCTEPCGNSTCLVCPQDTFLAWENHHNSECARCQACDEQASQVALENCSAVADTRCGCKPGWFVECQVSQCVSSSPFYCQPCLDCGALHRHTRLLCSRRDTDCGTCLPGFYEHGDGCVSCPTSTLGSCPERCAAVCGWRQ
The test is described as above. How it is done: as §2, §3

The target in test [4] is B1. Kind of test: FACS on HUVEC (endogenous DNA19355 transcripts). As to the method: as §1

Regarding B1, the binding result with TNFR1 immunoadhesin [1] is “no binding”.

B2: PRO364-IgG (PRO364 extracellular domain immunoadhesin) (Fc fusion)
chain: QRPTGGPGCGPGRLLLGTGTDARCCRVHTTRCCRDYPGEECCSEWDCMCVQPEFHCGDPCCTTCRHHPCPPGQGVQSQGKFSFGFQCIDCASGTFSGGHEGHCKPWTDCTQFGFLTVFPGNKTHNAVCVPGSPPAE
notes: Expressed in insect cells with Baculovirus; also called PRO364 immunoadhesin; PRO364 ECD C-terminus IgG-Fc tagged form; not shown: IgG Fc fused at the C-terminus
For the molecule B2, the binding result in [2] was “binds”.

B3: soluble DNA19355 polypeptide (ECD, His10-tagged, 125I-labeled) (ligand)
chain: MGHHHHHHHHHHSSGHIDDDDKHMETAKEPCMAKFGPLPSKWQMASSEPPCVNKVSDWKLEILQNGLYLIYGQVAPNANYNDVAPFEVRLYKNKDMIQTLTNKSKIQNVGGTYELHVGDTIDLIFNSEHQVLKNNTYWGIILLANPQFIS
modifications: 125I-labeled (radioiodinated)
notes: Expressed in E. coli and purified on Nickel-sepharose; Removal of the tag is not reported; also called soluble DNA19355 ECD molecule; radioiodinated DNA19355 polypeptide
With B3, the binding result with DR4 immunoadhesin, in the test with DR5 immunoadhesin, in the test with TNFR2 immunoadhesin, with CD95 immunoadhesin, in the test with TNFR1 immunoadhesin [3] and with Apo-3 immunoadhesin was “no binding” each time.
Turning to B4, in test [4], the binding result is listed as “no binding”.
